According to PMC4692362:

Molecular target: FLAG-Nrxn1β(−SS4) (UniProt Q63373)
Test: cell surface binding with Scatchard analysis

- Kd: 2.22 nM
Substance: SorCS1-ecto-His (from UniProt Q9JLC4 34-1098) (domain or fragment)
